Test results from patent US20180037651A1 (Janssen / Centocor, published 2018).

Key:
cyno GPRC5D [1] = target: T1, cyno GPRC5D (cyno, UniProt Q9NZD1 1-343 (human entry)); test: cell-based or functional assay
T1 chain: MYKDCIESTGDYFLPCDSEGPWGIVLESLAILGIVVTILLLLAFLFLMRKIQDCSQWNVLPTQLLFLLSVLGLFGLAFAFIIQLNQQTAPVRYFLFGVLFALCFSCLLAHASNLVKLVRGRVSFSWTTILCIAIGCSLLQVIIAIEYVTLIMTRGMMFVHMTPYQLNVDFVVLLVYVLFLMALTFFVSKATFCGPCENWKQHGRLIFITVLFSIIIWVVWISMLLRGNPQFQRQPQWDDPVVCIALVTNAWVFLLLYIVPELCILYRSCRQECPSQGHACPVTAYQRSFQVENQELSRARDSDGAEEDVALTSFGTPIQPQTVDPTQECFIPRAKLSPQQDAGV

cyno GPRC5D [2] = target: T1, cyno GPRC5D; test: cell-based or functional assay
human GPRC5D [3] = target: T2, human GPRC5D (human, UniProt Q9NZD1 1-345); test: cell-based or functional assay
T2 sequence (Q9NZD1 whole entry): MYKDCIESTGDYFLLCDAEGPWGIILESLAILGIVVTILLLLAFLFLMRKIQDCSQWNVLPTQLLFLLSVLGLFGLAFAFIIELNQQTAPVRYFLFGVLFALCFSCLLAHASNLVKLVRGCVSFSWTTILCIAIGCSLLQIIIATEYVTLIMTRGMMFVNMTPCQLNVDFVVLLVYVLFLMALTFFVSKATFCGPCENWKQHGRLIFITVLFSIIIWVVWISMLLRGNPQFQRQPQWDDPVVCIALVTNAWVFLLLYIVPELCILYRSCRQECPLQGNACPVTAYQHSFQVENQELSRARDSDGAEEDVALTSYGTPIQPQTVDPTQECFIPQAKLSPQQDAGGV

human GPRC5D [4] = target: T2, human GPRC5D; test: FACS binding to plasma cells in MM patient MM303BM bone marrow MNCs
human GPRC5D [5] = target: T2, human GPRC5D; test: FACS binding to plasma cells in MM patient MM305BM bone marrow MNCs
murine GPRC5D = target: T3, murine GPRC5D (murine, UniProt Q9JIL6 1-344); test: FACS, murine GPRC5D
T3 construct: also called mouse GPRC5D
T3 sequence: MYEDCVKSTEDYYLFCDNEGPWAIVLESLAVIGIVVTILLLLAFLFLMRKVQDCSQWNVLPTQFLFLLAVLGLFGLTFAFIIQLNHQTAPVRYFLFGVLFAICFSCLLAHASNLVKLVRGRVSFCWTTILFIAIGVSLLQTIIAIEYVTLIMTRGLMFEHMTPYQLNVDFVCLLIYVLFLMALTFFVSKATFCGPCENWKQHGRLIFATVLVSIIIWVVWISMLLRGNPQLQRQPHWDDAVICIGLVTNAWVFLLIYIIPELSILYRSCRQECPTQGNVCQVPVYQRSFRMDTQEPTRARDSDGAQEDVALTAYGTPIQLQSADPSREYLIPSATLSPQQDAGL

human GPRC5D [6] = target: T2, human GPRC5D; test: FACS, MM1R, H929 and human GPRC5D HEK293 cells
human GPRC5D [7] = target: T2, human GPRC5D; test: FACS titration, human GPRC5D HEK293 cells
human GPRC5D [8] = target: T2, human GPRC5D; test: FACS, GPRC5D+ MM1.R cells
Description: The binding affinities of the GPRC5D antibodies on GPRC5D⁺ human MM cell line (MM1.R, purchased from ATCC (American Type Culture Collection)) were measured using FACS.
Binding is expressed as normalized geometrical mean fluorescence intensity as determined by FACS. Graphing and fitting of data were done in GraphPad Prism 6 using nonlinear regression with variable slope (four parameters) and least square fit method.

human GPRC5D [9] = target: T2, human GPRC5D; test: FACS, human GPRC5D cells

Row | Binder | T cell mediated target cell killing, Cyno GPRC5D EC50 (cyno GPRC5D [1]) [nM] | T-cell redirection cytotoxicity EC50, cyno GPRC5D HEK cells (cyno GPRC5D [2]) [nM] | T-cell redirection cytotoxicity EC50, human GPRC5D HEK cells (human GPRC5D [3]) [nM] | EC50 (human GPRC5D [4]) [nM] | EC50 (human GPRC5D [5]) [nM] | MFI (murine GPRC5D) [MFI] | binding result (human GPRC5D [9]) | other results
1 | GCDB32 (bispecific antibody, human IgG4 S228P, lambda, F234A L235A, IgG4-PAA by Fab arm exchange; also called GC5B81 x CD3B219; copies: 1 + 1 + 1 + 1) heavy 1: not shown VL: not shown heavy 2: EVQLVESGGGLVQPGGSLRLSCAASGFTFNTYAMNWVRQAPGKGLEWVARIRSKYNNYATYYAASVKGRFTISRDDSKNSLYLQMNSLKTEDTAVYYCARHGNFGNSYVSWFAYWGQGTLVTVSSASTKGPSVFPLAPCSRSTSESTAALGCLVKDYFPEPVTVSWNSGALTSGVHTFPAVLQSSGLYSLSSVVTVPSSSLGTKTYTCNVDHKPSNTKVDKRVESKYGPPCPPCPAPEAAGGPSVFLFPPKPKDTLMISRTPEVTCVVVDVSQEDPEVQFNWYVDGVEVHNAKTKPREEQFNSTYRVVSVLTVLHQDWLNGKEYKCKVSNKGLPSSIEKTISKAKGQPREPQVYTLPPSQEEMTKNQVSLTCLVKGFYPSDIAVEWESNGQPENNYKTTPPVLDSDGSFLLYSKLTVDKSRWQEGNVFSCSVMHEALHNHYTQKSLSLSLGK light: QTVVTQEPSLTVSPGGTVTLTCRSSTGAVTTSNYANWVQQKPGQAPRGLIGGTNKRAPGTPARFSGSLLGGKAALTLSGVQPEDEAEYYCALWYSNLWVFGGGTKLTVLGQPKAAPSVTLFPPSSEELQANKATLVCLISDFYPGAVTVAWKADSSPVKAGVETTTPSKQSNNKYAASSYLSLTPEQWKSHRSYSCQVTHEGSTVEKTVAPTECS | 0.19 | 0.07 | 0.04 | 16.1 | 70.4 | 1150 | – | –
2 | GCDB35 (bispecific antibody, IgG4) heavy 1: not shown VL: EIVLTQSPATLSLSPGERATLSCRASQSVSSYLAWYQQKPGQAPRLLIYDASNRATGIPARFSGSGSGTDFTLTISSLEPEDFAVYYCQQRSNWPLTFGQGTKVEIK heavy 2: EVQLVESGGGLVQPGGSLRLSCAASGFTFNTYAMNWVRQAPGKGLEWVARIRSKYNNYATYYAASVKGRFTISRDDSKNSLYLQMNSLKTEDTAVYYCARHGNFGNSYVSWFAYWGQGTLVTVSSASTKGPSVFPLAPCSRSTSESTAALGCLVKDYFPEPVTVSWNSGALTSGVHTFPAVLQSSGLYSLSSVVTVPSSSLGTKTYTCNVDHKPSNTKVDKRVESKYGPPCPPCPAPEAAGGPSVFLFPPKPKDTLMISRTPEVTCVVVDVSQEDPEVQFNWYVDGVEVHNAKTKPREEQFNSTYRVVSVLTVLHQDWLNGKEYKCKVSNKGLPSSIEKTISKAKGQPREPQVYTLPPSQEEMTKNQVSLTCLVKGFYPSDIAVEWESNGQPENNYKTTPPVLDSDGSFLLYSKLTVDKSRWQEGNVFSCSVMHEALHNHYTQKSLSLSLGK light: QTVVTQEPSLTVSPGGTVTLTCRSSTGAVTTSNYANWVQQKPGQAPRGLIGGTNKRAPGTPARFSGSLLGGKAALTLSGVQPEDEAEYYCALWYSNLWVFGGGTKLTVLGQPKAAPSVTLFPPSSEELQANKATLVCLISDFYPGAVTVAWKADSSPVKAGVETTTPSKQSNNKYAASSYLSLTPEQWKSHRSYSCQVTHEGSTVEKTVAPTECS | 4.65 | – | – | – | – | – | – | –
3 | GCDB45 (bispecific antibody, IgG4, V domains shown, IgG4-PAA bispecific; also called GC5B332 x CD3B219) VH 1: EVQLVQSGAEVKKPGESLKISCKGSGYSFTSYWIGWVRQMPGKGLEWMGIIYPGDSDTRYSPSFQGQVTISADKSISTAYLQWSSLKASDTAMYYCARIGFYGRSFRIFDYWGQGTLVTVSS VL 1: EIVLTQSPATLSLSPGERATLSCRASQSVSSYLAWYQQKPGQAPRLLIYDASNRATGIPARFSGSGSGTDFTLTISSLEPEDFAVYYCQQRSNWPLTFGQGTKVEIK VH 2: EVQLVESGGGLVQPGGSLRLSCAASGFTFNTYAMNWVRQAPGKGLEWVARIRSKYNNYATYYAASVKGRFTISRDDSKNSLYLQMNSLKTEDTAVYYCARHGNFGNSYVSWFAYWGQGTLVTVSS VL 2: QTVVTQEPSLTVSPGGTVTLTCRSSTGAVTTSNYANWVQQKPGQAPRGLIGGTNKRAPGTPARFSGSLLGGKAALTLSGVQPEDEAEYYCALWYSNLWVFGGGTKLTVL | 2.82 | – | – | – | – | – | – | binding result (human GPRC5D [6]): binds
4 | GCDB44 (bispecific antibody, IgG4, V domains shown, IgG4-PAA bispecific; also called GC5B320 x CD3B219) VH 1: not shown VL 1: EIVLTQSPATLSLSPGERATLSCRASQSVSSYLAWYQQKPGQAPRLLIYDASNRATGIPARFSGSGSGTDFTLTISSLEPEDFAVYYCQQRSNWPLTFGQGTKVEIK VH 2: EVQLVESGGGLVQPGGSLRLSCAASGFTFNTYAMNWVRQAPGKGLEWVARIRSKYNNYATYYAASVKGRFTISRDDSKNSLYLQMNSLKTEDTAVYYCARHGNFGNSYVSWFAYWGQGTLVTVSS VL 2: QTVVTQEPSLTVSPGGTVTLTCRSSTGAVTTSNYANWVQQKPGQAPRGLIGGTNKRAPGTPARFSGSLLGGKAALTLSGVQPEDEAEYYCALWYSNLWVFGGGTKLTVL | – | – | – | – | – | – | – | binding result (human GPRC5D [7]): binds
5 | GCDB61 (bispecific antibody, IgG4, V domains shown, IgG4-PAA by Fab arm exchange; CD3 arm also F405L, R409K; also called GC5B483 x CD3B219) VH 1: EVQLVQSGAEVKKPGESLKISCKGSGYSFTSYFIGWVRQMPGKGLEWMGIIYPGKSDTRYSPSFQGQVTISADKSISTAYLQWSSLKASDTAMYYCARVYSFGGRHKALFDYWGQGTLVTVSS VL 1: EIVLTQSPATLSLSPGERATLSCRASQSVSSYLAWYQQKPGQAPRLLIYDASNRATGIPARFSGSGSGTDFTLTISSLEPEDFAVYYCQQRSNWPLTFGQGTKVEIK VH 2: EVQLVESGGGLVQPGGSLRLSCAASGFTFNTYAMNWVRQAPGKGLEWVARIRSKYNNYATYYAASVKGRFTISRDDSKNSLYLQMNSLKTEDTAVYYCARHGNFGNSYVSWFAYWGQGTLVTVSS VL 2: QTVVTQEPSLTVSPGGTVTLTCRSSTGAVTTSNYANWVQQKPGQAPRGLIGGTNKRAPGTPARFSGSLLGGKAALTLSGVQPEDEAEYYCALWYSNLWVFGGGTKLTVL | – | 1.22 | 0.03 | 5.53 | 6.93 | 3550 | – | –
6 | GCDB53 (bispecific antibody, IgG4, V domains shown, IgG4-PAA by Fab arm exchange; CD3 arm also F405L, R409K; also called GC5B465 x CD3B219) VH 1: not shown VL 1: not shown VH 2: EVQLVESGGGLVQPGGSLRLSCAASGFTFNTYAMNWVRQAPGKGLEWVARIRSKYNNYATYYAASVKGRFTISRDDSKNSLYLQMNSLKTEDTAVYYCARHGNFGNSYVSWFAYWGQGTLVTVSS VL 2: QTVVTQEPSLTVSPGGTVTLTCRSSTGAVTTSNYANWVQQKPGQAPRGLIGGTNKRAPGTPARFSGSLLGGKAALTLSGVQPEDEAEYYCALWYSNLWVFGGGTKLTVL | – | 0.36 | 0.08 | 3.98 | 10.2 | 2660 | – | –
7 | GC5B602 (antibody, IgG1, V domains shown, IgG1 form of GC5B515) VH: QVQLVQSGAEVKKPGASVKVSCKASGYSFTGYTMNWVRQAPGQGLEWMGLINPYNGDTNYAQKLQGRVTMTTDTSTSTAYMELRSLRSDDTAVYYCARVALRVALDYWGQGTLVTVSS VL: DIQMTQSPSSLSASVGDRVTITCKASQNVATHVGWYQQKPGKAPKRLIYSASYRYSGVPSRFSGSGSGTEFTLTISNLQPEDFATYYCQQYNRYPYTFGQGTKLEIK | – | – | – | – | – | – | – | EC50 (human GPRC5D [8]): 135 nM
8 | GC5B590 (antibody, V domains shown, GC5B540 PTM variant) VH: QVTLKESGPVLVKPTETLTLTCTVSGFSLTSYNVHWIRQPPGKALEWLAVIWAGGSTNYNSALKSRLTISKDTSKSQVVLTMTNMRAEDTATYYCARDGIRLRFAYWGQGTLVTVSS VL: EIVMTQSPATLSVSPGERATLSCKASQNVATHVGWYQQKPGQAPRLLIYSASYRYSGIPARFSGSGSGTEFTLTISSLQSEDFAVYYCQQYNRYPYTFGQGTKLEIK | – | – | – | – | – | – | binds | –
9 | GC5B594 (antibody, V domains shown, GC5B540 PTM variant) VH: QVTLKESGPVLVKPTETLTLTCTVSGFSLTSYNVHWIRQPPGKALEWLAVIWAGGSTNYNSALKSRLTISKDTSKSQVVLTMTNMRAEDTATYYCARDAIRLRFAYWGQGTLVTVSS VL: EIVMTQSPATLSVSPGERATLSCKASQNVATHVGWYQQKPGQAPRLLIYSASYRYSGIPARFSGSGSGTEFTLTISSLQSEDFAVYYCQQYNRYPYTFGQGTKLEIK | – | – | – | – | – | – | binds | –
10 | GC5B592 (antibody, V domains shown, GC5B540 PTM variant) VH: QVTLKESGPVLVKPTETLTLTCTVSGFSLTSYNVHWIRQPPGKALEWLAVIWAGGSTNYNSALMSRLTISKDTSKSQVVLTMTNMRAEDTATYYCARDAIRLRFAYWGQGTLVTVSS VL: EIVMTQSPATLSVSPGERATLSCKASQNVATHVGWYQQKPGQAPRLLIYSASYRYSGIPARFSGSGSGTEFTLTISSLQSEDFAVYYCQQYNRYPYTFGQGTKLEIK | – | – | – | – | – | – | binds | –
